Source: US20240132578A1

Columns and labels:
Experiment in all cases: cell-based or functional assay
[1] = target: HIV-1 envelope glycoprotein (Env) of isolate 93TH305, on pseudovirus (HIV-1)
[2] = target: HIV-1 envelope glycoprotein (Env) of isolate APV_6, on pseudovirus (HIV-1)
[3] = target: HIV-1 MGRM-D-018 envelope protein (Env) on pseudovirus (HIV-1)
[4] = target: HIV-1 envelope glycoprotein (Env) of isolate VLGCB3, on pseudovirus (HIV-1)
[5] = target: HIV-1 JR-CSF Env I424A (HIV-1 (isolate JR-CSF)) (UniProt P20871)
[6] = target: HIV-1 envelope glycoprotein (Env) of isolate 6535.3, on pseudovirus (HIV-1)
[7] = target: HIV-1 JR-CSF Env N396A (HIV-1 (isolate JR-CSF)) (UniProt P20871)
[8] = target: HIV-1 JR-CSF Env Q422A (HIV-1 (isolate JR-CSF)) (UniProt P20871)
[9] = target: HIV-1 92UG024 Env (HIV-1)
[10] = target: HIV-1 envelope glycoprotein (Env) of isolate VLGCA1, subtype A (HIV-1)
[11] = target: HIV-1 JR-CSF Env D417A (HIV-1 (isolate JR-CSF)) (UniProt P20871)
[12] = target: HIV-1 envelope glycoprotein (Env) of isolate MG RM-A-005, subtype A (HIV-1)
[13] = target: HIV-1 Env of isolate MGRM-A-002 (clade A pseudovirus) (HIV-1)
[14] = target: HIV-1 Env of isolate 92UG031 (clade A pseudovirus) (HIV-1)
[15] = target: HIV-1 envelope glycoprotein (Env) of isolate LAVIC_18 (HIV-1)
[16] = target: HIV-1 Env of isolate 92UG024 (clade D pseudovirus) (HIV-1)
[17] = target: HIV-1 Env of isolate MGRM-A-006 (clade A pseudovirus) (HIV-1)
[18] = target: HIV-1 Env of pseudovirus MGRM-G-016 (HIV-1)
[19] = target: HIV-1 MGRM-AE-004 Env (pseudovirus) (HIV-1)
[20] = target: HIV-1 92UG005 envelope (Env) on pseudovirus (HIV-1)
[21] = target: HIV-1 NL43 envelope (Env) on pseudovirus (HIV-1)
[22] = target: HIV-1 Env of isolate MGRM-D-021 (clade D pseudovirus) (HIV-1)
[23] = target: HIV-1 Env of isolate SC422661.8 (Acute), clade B (HIV-1)
[24] = target: HIV-1 Env of isolate 92RW020 (Clade A) (HIV-1)
[25] = target: envelope of aMLV pseudovirus (negative control)
[26] = target: HIV-1 Env of isolate MGRM-F1-016 (HIV-1)
[27] = target: HIV-1 Env of isolate MGRM-D-001 (pseudovirus) (HIV-1)
[28] = target: HIV-1 Env of isolate CMU02 (subtype AE) (HIV-1)
[29] = target: HIV-1 Env of isolate MGRM-A-004 (pseudovirus) (HIV-1)
[30] = target: HIV-1 Env of isolate MGRM-C-005 (HIV-1)
[31] = target: HIV-1 Env of pseudovirus isolate MGRM-C-009 (clade C) (HIV-1)
[32] = target: HIV-1 Env of isolate MGRM-F1-023 (HIV-1)
[33] = target: HIV-1 Env of pseudovirus isolate MGRM-C-019 (clade C) (HIV-1)
[34] = target: HIV-1 Env of isolate MGRM-A-014 (subtype A) (HIV-1)
[35] = target: HIV-1 Env of isolate MGRM-G-014 (subtype G) (HIV-1)
[36] = target: HIV-1 Env of isolate CMU02 (pseudovirus) (HIV-1)
[37] = target: HIV-1 Env of isolate MGRM-G-004 (subtype G) (HIV-1)

1443_C16 (PG16) (TCN-116) (antibody), sequence (VH): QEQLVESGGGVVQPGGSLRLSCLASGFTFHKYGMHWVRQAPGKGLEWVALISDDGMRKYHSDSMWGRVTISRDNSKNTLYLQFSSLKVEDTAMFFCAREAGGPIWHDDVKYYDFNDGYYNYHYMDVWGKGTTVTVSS
1443_C16 (PG16) (TCN-116) (antibody), sequence (VL): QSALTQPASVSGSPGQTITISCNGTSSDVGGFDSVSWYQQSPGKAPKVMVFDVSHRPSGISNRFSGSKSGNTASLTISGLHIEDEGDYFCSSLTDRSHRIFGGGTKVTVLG

| Substance | IC50, pseudovirus neutralization [1] | IC50, pseudovirus neutralization [2] | IC50 (ug/mL), pseudovirus neutralization [3] | IC50, pseudovirus neutralization [4] | IC50, pseudovirus neutralization [6] | IC50, pseudovirus neutralization [9] | IC50, pseudovirus neutralization [10] | IC50, pseudovirus neutralization [12] | IC50 (µg/ml), pseudovirus neutralization [13] | IC50 (µg/ml), pseudovirus neutralization [14] | IC50 (µg/ml), pseudovirus neutralization [15] | IC50, pseudovirus neutralization [16] | IC50 (µg/ml), pseudovirus neutralization [17] | IC50 (µg/ml), pseudovirus neutralization [18] | IC50 (µg/ml), pseudovirus neutralization [19] | neutralization IC50 [20] | neutralization IC50 [21] | IC50, pseudovirus neutralization [22] | IC50 (µg/ml), pseudovirus neutralization [23] | IC90 (neutralization of pseudovirus) [24] | also measured |
| --- | --- | --- | --- | --- | --- | --- | --- | --- | --- | --- | --- | --- | --- | --- | --- | --- | --- | --- | --- | --- | --- |
| 5123_A06 (PGT-125) (antibody) | 0.008 µg/mL | 0.021 µg/mL | 0.0382 µg/mL | 0.015 µg/mL | 0.01 µg/mL | > 10 µg/mL | 0.078 µg/mL | > 50 µg/mL |  |  |  |  |  |  |  |  |  |  |  |  | Fold IC50 increase relative to wild-type (pseudovirus neutralization) [5]: 0.7 fold; Fold IC50 increase relative to wild-type (pseudovirus neutralization) [7]: 1.6 fold; Fold IC50 increase relative to wild-type (pseudovirus neutralization) [8]: 1.2 fold; Fold IC50 increase relative to wild-type (pseudovirus neutralization) [11]: 0.5 fold |
| 2F5 (antibody) |  |  |  |  |  |  |  |  | > 50 µg/mL | 3.81 µg/mL | > 50 µg/mL | 0.95 µg/mL | 15.7 µg/mL | 16.8 µg/mL | 0.98 µg/mL | 11.8 µg/mL | 2.41 µg/mL | > 50 µg/mL | > 50 µg/mL | 27.7 µg/mL | IC50 [25]: > 50 µg/mL |
| 5345_I01 (PGT-137) (antibody) |  |  |  |  |  |  |  |  |  |  |  |  |  |  |  |  |  |  |  |  | IC50 (µg/mL), pseudovirus neutralization [26]: > 50 µg/mL; IC50 (µg/mL), pseudovirus neutralization [27]: > 50 µg/mL; IC50, pseudovirus neutralization [28]: > 50 µg/mL; IC50 (µg/mL), pseudovirus neutralization [29]: > 50 µg/mL; IC50 (µg/mL), pseudovirus neutralization [30]: > 50 µg/mL; IC50, pseudovirus neutralization [31]: > 50 µg/mL; IC50 (µg/mL), pseudovirus neutralization [32]: > 50 µg/mL; IC50, pseudovirus neutralization [33]: > 50 µg/mL; IC50, pseudovirus neutralization [34]: 18.6 µg/mL |
| 2G12 (antibody) |  |  |  |  |  |  |  |  | > 50 µg/mL | > 50 µg/mL | > 50 µg/mL | 0.42 µg/mL | 13.8 µg/mL | > 50 µg/mL | > 50 µg/mL | > 50 µg/mL | 0.75 µg/mL | 23 µg/mL | 0.84 µg/mL | 6.23 µg/mL | IC50 [25]: > 50 µg/mL |
| 5141_B17 (PGT-126) (antibody) | 0.013 µg/mL | 0.007 µg/mL | 0.0093 µg/mL | 0.007 µg/mL | 0.022 µg/mL | > 10 µg/mL | > 50 µg/mL | > 50 µg/mL |  |  |  |  |  |  |  |  |  |  |  |  | Fold IC50 increase relative to wild-type (pseudovirus neutralization) [5]: 0.4 fold; Fold IC50 increase relative to wild-type (pseudovirus neutralization) [7]: 1.7 fold; Fold IC50 increase relative to wild-type (pseudovirus neutralization) [8]: 1.1 fold; Fold IC50 increase relative to wild-type (pseudovirus neutralization) [11]: 1 fold |
| 5329_C19 (PGT-136) (antibody) |  |  | > 10 µg/mL |  |  |  |  |  |  |  |  |  |  |  |  |  |  |  |  |  | IC50 (µg/mL), pseudovirus neutralization [26]: > 50 µg/mL; IC50 (µg/mL), pseudovirus neutralization [27]: > 50 µg/mL; IC50, pseudovirus neutralization [28]: > 50 µg/mL; IC50 (µg/mL), pseudovirus neutralization [29]: > 50 µg/mL; IC50 (µg/mL), pseudovirus neutralization [30]: > 50 µg/mL; IC50, pseudovirus neutralization [31]: > 50 µg/mL; IC50 (µg/mL), pseudovirus neutralization [32]: > 50 µg/mL; IC50, pseudovirus neutralization [33]: 20.1 µg/mL; IC50, pseudovirus neutralization [34]: > 50 µg/mL |
| 4877_D15 (PGT-122) (antibody) | 0.013 µg/mL | 0.019 µg/mL | 0.0115 µg/mL | 0.008 µg/mL | 0.006 µg/mL | > 10 µg/mL | > 50 µg/mL | > 50 µg/mL |  |  |  |  |  |  |  |  |  |  |  |  |  |
| 1495_C14 (PGC14) (antibody) |  |  |  |  |  |  |  |  | > 50 µg/mL | > 50 µg/mL | > 50 µg/mL | > 50 µg/mL | > 50 µg/mL | > 50 µg/mL | > 50 µg/mL | > 50 µg/mL | 0.373 µg/mL | > 50 µg/mL | > 50 µg/mL |  | IC50 [25]: > 50 µg/mL |
| 1443_C16 (PG16) (TCN-116) (antibody) |  |  |  |  |  |  |  |  | 0.004 µg/mL | 0.43 µg/mL | 0.02 µg/mL | 24 µg/mL | > 50 µg/mL | 11.3 µg/mL | 0.002 µg/mL | > 50 µg/mL | < 0.0025 µg/mL | > 50 µg/mL | 1.13 µg/mL | > 50 µg/mL | IC50 [25]: > 50 µg/mL |
| 1496_C09 (PG9) (TCN-109) (antibody) |  |  | 0.0444 µg/mL |  |  | 1.91 µg/mL |  |  |  | 3.08 µg/mL | 0.1 µg/mL | 1.91 µg/mL |  | 0.4 µg/mL | 0.01 µg/mL |  |  |  | 0.79 µg/mL | 6.55 µg/mL | IC50 (µg/mL), pseudovirus neutralization [35]: 16.5 µg/mL |
| PGV04 (antibody) |  |  |  |  |  |  |  |  |  |  |  |  |  |  |  |  |  |  |  |  | IC50 (µg/mL), pseudovirus neutralization [36]: 1.24 µg/mL; IC50 (µg/mL), pseudovirus neutralization [35]: 0.056 µg/mL; IC50 (µg/mL), pseudovirus neutralization [37]: > 50 µg/mL; IC50 (µg/mL), pseudovirus neutralization [32]: 0.171 µg/mL |
| 5145_B14 (PGT-127) (antibody) | 0.017 µg/mL | 0.04 µg/mL |  | 0.022 µg/mL | 0.02 µg/mL |  | > 50 µg/mL | > 50 µg/mL |  |  |  |  |  |  |  |  |  |  |  |  | Fold IC50 increase relative to wild-type (pseudovirus neutralization) [5]: 2 fold; Fold IC50 increase relative to wild-type (pseudovirus neutralization) [7]: 2.4 fold; Fold IC50 increase relative to wild-type (pseudovirus neutralization) [8]: 0.1 fold; Fold IC50 increase relative to wild-type (pseudovirus neutralization) [11]: 0.4 fold |
| 4838_L06 (PGT-121) (antibody) | 0.007 µg/mL | 0.018 µg/mL |  | 0.005 µg/mL | 0.005 µg/mL | > 10 µg/mL | > 50 µg/mL | > 50 µg/mL |  |  |  |  |  |  |  |  |  |  |  |  |  |
| b12 (antibody) |  |  |  |  |  |  |  |  | > 50 µg/mL | > 50 µg/mL | > 50 µg/mL | 45.6 µg/mL | 13.6 µg/mL | > 50 µg/mL | > 50 µg/mL | > 50 µg/mL | 0.06 µg/mL | 5.23 µg/mL | 6.11 µg/mL | > 50 µg/mL | IC50 [25]: > 50 µg/mL |
| 4858_P08 (PGT-123) (antibody) | 0.008 µg/mL | 0.023 µg/mL | 0.0047 µg/mL | 0.004 µg/mL | 0.004 µg/mL | > 10 µg/mL | > 50 µg/mL | > 50 µg/mL |  |  |  |  |  |  |  |  |  |  |  |  | Fold IC50 increase relative to wild-type (pseudovirus neutralization) [5]: 0.5 fold; Fold IC50 increase relative to wild-type (pseudovirus neutralization) [7]: 1.2 fold; Fold IC50 increase relative to wild-type (pseudovirus neutralization) [8]: 0.8 fold; Fold IC50 increase relative to wild-type (pseudovirus neutralization) [11]: 0.7 fold |
| 4E10 (antibody) |  |  |  |  |  |  |  |  | 6.45 µg/mL | 4.94 µg/mL | > 50 µg/mL | 2.17 µg/mL | 9.87 µg/mL | 1.02 µg/mL | 1.27 µg/mL | 8.86 µg/mL | 4.95 µg/mL | 13.3 µg/mL | 6.35 µg/mL | 36.1 µg/mL | IC50 [25]: > 50 µg/mL |
